Legend:
[1] = molecular target: IgG; experiment: sandwich liposome assay: IgG at 10 nM captured by DNA aptamer on silicon supporter, FcIII peptide liposomes bound, washed, UV-triggered release of pH 8.5 buffer, change of surface potential read (SD 0.62 mV)
[2] = molecular target: IgG; experiment: sandwich liposome assay: IgG at 50 nM captured by DNA aptamer on silicon supporter, FcIII peptide liposomes bound, washed, UV-triggered release of pH 8.5 buffer, change of surface potential read (SD 2.87 mV)

Q: FcIII peptide was tested. Which surface potential variation [1] did it give?
A: -3.75 mV

Q: What about the surface potential variation [2] of the same substance?
A: -10.6 mV

— patent US20210396744A1
